Laboratory results taken from a protein production outcome set (Wang et al. 2014).

Assay: label from the status in PepcDB records

Row | Sequence | protein production
1 | MIKETVFKSFDTPAALEQQLANKIASQLQEAVDARGKASLVVSGGSTPLKLFELLSMKSIDWSDVYITLADERWVDVEDSASNERLVREHLLQNRAANAKFRGLKNMFSTAEAGADMTCESLSNFPRPFDVVVLGMGNDGHTCSWFPCSAELNDALTTQALCVATNPTTAPHGRITLSKNAILNSRQIYLHLVGEQKLSVYRQALENDDVNAMPIRAVLAQRKTPVDVFWSA | failed
2 | MIKPTPVAGTSLDRVDGVAKVTGQARYAGEYPEVGLLHGSVVSSTIARGRVLNIDSTQAMRVPGVIAVLDHGHRPHISSYDDDYSDADAAQGAPFRPLFDDRVLYNGQPLALVVAQTLELARYAGSLIRIEYAEEAHQTDLGACQQSHAAPAETPPPRGDFAAQFARAPVQVDATYLTANEYHNPMEPHASTVLYKGDGTLEIHDKTQGTQNCQDYLHKVFGLPKANIRVRAAFVGGAFGSGLRPQYQLPLAVMAALHLQRSVRVTLTRQQMFTFGYRPRTEQRLRLGADANGQLLAIAHDALGQTSRFEDFTEHVVEWSGMLYQCDNVALSYRLASLDVYTPLDMRAPGAASGMIALECAMDELACAAQIDPLDLRRRNFAASNANEGKPYSSKELLTCYRQGAERFGWQNRNPQPRSMRHGNQLVGWGMAGGVWEAMQMKASAKARFDAQGHLTVSSATTDIGTGTYTVMTQIAADAAGARVQDVTFVLGDSSLPTAPLQGGSFTVSSVGSAVRQACQVLRTKVLEHARRMYPQVASTAREQIIFADGYLHAGSHRLALADIIASAPEGEFEVQIDAEPGARRQPFSTATHSAVFAEVHVDEDLGTIKVVRVVSAVAAGRVINPKTARSQILGGVVWGVGMALHEAALTDHRLGRIVNHNLAEYHIPVNADSGDIEVIFVEEHDDIVNELGSKGVGEIGVVGVAAAVANAVYHATGKRVREFPITLDKLLKDNSQV | failed
3 | MIKRILTVLLLFPTLVCAQINTERVMTIARNALYFEDYVLSIQYFNQVINAKPYLYEPYFFRALAKVNLEDYQGAEADCDEAIKRNPFVVGAYQVRGLARIRQSKFDGAIEDYQKALHYDPENITLWHNLTLSHIQKKDYDAAKEDLESLLKVSPRYTRAYLMRGEVSLQQKDTVAALKDFNTALELDKYDPDAWSARAIVRLQQSNYAEAESDLDRAIHLSAKNAGNYINRALARFHQNNLRGAMSDYDLALDIDPNNFIGHYNRGLLRARVGDDNRAIEDFDFVIQMEPDNMMAIFNRALLRAQTGDYRGAIKDYTTVINQYPNFLAGYYHRAEARKKIGDKKGAEQDDFKLLKAQLDKQNGGTNKDVAQNQNKDKENQSGENGDESEEGKTRKKSDKNMNNYRKIVIADDSEADQRYTSDYRGRVQDKNVNIKLEPMFALTYYEKSSEVKRSVNFHKFIEDLNLSNVLPKRIRITNMEAPLTEEQVKFHFALIDAHTSAIVDDDKSAPKRFARAIDFYLVQDFSSAVADLTQAILLDGDFFPAYFMRALIRCKQLEYQKAEQAAEADMPSGAAVKEVSAVDYEVVRKDLDKVITLAPDFVYAYYNRANVAAMLKDYRAAIVDYDKAIQLSPDFADAYFNRGLTHIFLGNNKAGISDLSKAGELGVVSAYNVIKRFTDQTE | failed
4 | MIKYLIVMLIPFVIVYLLMPKFIEFANEKGFVDKPTGRKKHDKLTPLIGGVVMYIGFFATYLFGIDSTRQLSQTFIIFIASTLVIIIGVIDDYYKGKGKEFPIYPRVIIQILAATMVFKAGIVFRGITNPFTGEFTQFSGWIQYILTITWIFGVTTVINWSDGMDGLAGSISIISAMTMFVVALAKGQFNSAYMSITLVGSILAFLRYNRHPARVFMGDSGANFLGFILAIIALEGAFKQATALSILVPVLALGVPIFDNIFVIFRRFQSGKPVYEADRSQIHYRLQERGMSVKQIVSYICILSGCLSLVSLLIIMIIL | failed
5 | MILAILQARMSSTRLPGKVLMPLQRQPMIVRQIERVARSKRIDKLVVATSDRPEDDAIEAAVRREGIAVFRGSLDNVQQRFIGALDAHPADHVVRLTADCPLADPTLIDATIDLCLSKGADYVSNTPEGHAHPKGTDVEVMTAAALRRAAAEATTKEAFEHVTWDLWNQPQRWTCAWLPCFPDQGAVRWTVDRPDDYAFVAAVYDALYPANRAFTSDDIRAFVAGRPDLQDYGGDRRALEHHHHHH | failed
6 | MILFADYNTPYLFAISFVLLIGLLEIFALICGHMLSGALDAHLDHYDSITTGHISQALHYLNIGRLPALVVLCLLAGFFGLIGILLQHACIMVWQSPLSNLFVVPVSLLFTIIAVHYTGKIVAPWIPRDHSSAITEEEYIGSMALITGHQATSGNPCEGKLTDQFGQIHYLLLEPEEGKIFTKGDKVLIICRLSATRYLAENNPWPQIL | failed
7 | MILIKKFATVASGTLMSRIFGFVREMLMAAALGTGPVSDAFNAAFRFPNTFRRFFAEGAFNAAFVPLFAKRITEDGQETACKFAEEVFGVLFSLLLLLTIAMELSMPFLVRTIIAPGFAEDATKFNATIHFTAIMFPYLTCMSLAAMMGGMLNALRRYFIAAIAPLFLNIILISVLAYAWIYQLDTWHIGLNLSWGVLAAGLLQLTLIAAALRQSGMKIFLRRPRFSSNVRKLLTLAFPAAITGGITQINLLINTNIASSQSGAVSSLMYADRLYQLPLGVIAIAIATVLLPELTRALRSKNHKETHNLQNRSIELTLLLTLPASVAFLILSTPIVSLLFERGQFTSLSTHYVAQLLKLYGLGLPAFVLIKIFIPNFFAHEDTKTPMIITGICVFINISLALILFPILSARGIVIAEITSGWMNALLLWTILIQRGYWKYDIQLIKRITCLIITTLLNTIALYYVFDVIDFLSFPLSSQASFFLRASTLAGIMVAILLVHCFAYFLLDTRSFFLTLKNFKKRL | failed
8 | MILKTKLFGKVYQFTSVKEVLAKANEEKSGDKLAGVAANSAEERVAAKVVLSELSLNDLFNNPVVDYDEDEVTRIIIDQVNMRIFESIKHWTVAELREFILSSETTDFDIKRISRGLTSEMIAAVCKLMSNMDLIVGAKKINIEKTANTTIGRPGTFSNRLQPNHPTDNVDGIMASVMEGLSYGAGDALIGLNPVDDSTESVKRILNKFEEFRSEWEIPTQTCVLAHVTTQMEAMRQGAPTGLVFQSIAGSEKGNTAFGLNAEILAEAQDLALHSGQAAGPNVMYFETGQGSELSSEANFGADQVTMEARCYGLAKKFDPYIVNTVVGFIGPEYLYDSKQVIRAGLEDHFMGKLTGISMGCDVCYTNHMKADQNDMENLAMLLATAGCTYIMGIPHGDDVMLNYQTTGFHETATIRETLGLRPIKEFEEWMEKMGLMENGKLTSRAGDASVFIK | not failed
9 | MILNLDTNIFNHGLSRHNILAFSQGFPIGLPCRNWIEVGLRLRLRLLLELAVGNFPQGFKIHLSGSFQAVRLALFSSFTSLRTDELLLIETRPSYLSSVQVWGKGRPLLLLLTKREQPALQANREPPARFESLRAGKQEEADRAKASPLLASALPEAVEVGTRSRRSRGSSCGFRVKLAHCQKANRSSYLDQRTLIPGRQQGLRVEGMNQVSWLRIGGMGVRSVPSSPSPRLRLLETGDRVFLRRLAASPFNKGFQWQQTAPQDEAKNGVGGLPVVRASKWLAGPRKHNERDDRSSTRPEIDVLLP | failed
10 | MILNRQTVALMTAGLLAFNSCSLKQMVKMAKDQELTVTPSPLEVHGDSVAFDISATLPVKMLKKNKIYSVSTFYKSGDNKVELGSFDFVSTDYPDAKTTAPQIKKHQAFAYKPEIGNGDLLAVGTASNLDKTKTKSTEEFPIAKGLITTSRLVKDYSYVAYADHGYNNKEELIASTVNFYFEQGKSVLRSSEMKGQNAKFLDAFITAKHVTRTISVIGQHSPEGTETKNTNLANERSVVIEKYVKARMKHFKQDSLVNTIQFVTKGDIKDFEPMKAEIAKSTKLTPEQKSELLNIIAGSGDFTSKQQQIEKLPYYNKSVLAQLYPSLRTARTEIWTVKPKKTDAQISLLAGQITSGKVSVDTLSVEELGYAGTLTPILSEKAAIYEALAKKTDNWVAYNNLGAVYVEMAKVEVDQNKKTELVNKAINTLEMSIKKQDNGEAHVNLASAYILSGVKTSARDEANKAVASNASDAVKKGANGILGTVDIKDGKYELALQDFSKSNDSIQVKFNTALASLLKKDFNTAKAGFANYTAAAPNDAAGFYLAAVTAARLKDEATLTTNLKKAKQLSPKFGERAVSDMEFYDYWNSDNFKNALK | failed
11 | MINDALKPYLEEKIESAKKTVPSFALEELKQKIISSPIQFGKSDIDDLVANLLKRYEQTKENSLIGKIDSIFKEISDMEKVMSGKAAEPAQPAEKPKKKAKLEAIGDDVVSIMVSLRWLEFLLDNYGPENTLDVLDYYESLGWISSTVKEQMMKYAKMTGVMNPAQEYKIKPSIQDHIINMLFIEKLRGEEINRDLIEALEREFRTIRKGVDELYGI | failed
12 | MINLWKNGYDMVYGIRNRTTESWLKRVLTQAYYRILNLSSPIDIPESAGDFRLLDAKVVEAIKQLPEKNRYMKGLYAWVGFKSIGINFSEQERQHGHSSFNLKSLFNLAMSGLTGFSDLPLRVCIYLGAILALGAMSYGVWIIIKTLIEGISIPGWATLAAGMTLLGGIQLLFIGILGEYIGRIYAEVKNRPKYIISTEHSRTKQEHSIAHQENTFSSF | failed
13 | MINPKVITRILANTDLKTKMRLAKVVPKLGKSDDVTKCMLCPNMCLHVCPVFDAERRLTVSPSVKSRLAYLGETEEAIYHCLPCDACKNACPMDISVNDNLRGYRGGERAMKAIERFEKSMRKVEVEPRDGKILYFPGCSTFESGLFDVTVEVLEKLGVDFAVKNLECCGMPYYELGLVDKFRGKISSLKDAAAKYEGVISNCPHCVHVMRENGIKAAHLLAVLKPVKIGGDVSYHDPCILARKLDIVEEPRRLLAEMGFVVHEPVFNGKDTHCCGYGGVYRFVVPEMAEKVAERRMEHFEHQIVTLCPSCRMALKAKDIVEIIAEGL | failed
14 | MINSFKSVFLTIRYFIQNDLATQASALTYRTILSIVPMLAVLIGIAKGFGIQQVVHDWLKEYLPGHQQELEQALGYVENYLAQVQGGIFVGVGLIVLLYTVFSLIATVEDTFTDIWQTNKRRTWKRRVIDYMGAFFLLPILITASSGLTLMMTTIKGTYFSEYILFGPMLELILNLIPYVIIVLLFTGMYIVLPTVNVRFWPAFISGVLAGIVFQIFQALYISGILWISKYNAIYGSFAAVPLLLLWIQLSWTIVLFGAQLSFSIQNVRKFAFERDTTNVSRRYIDFITIVVASLIVKRFISDERRPHTADSLAEESKAPIRLVSEAIHRLLSIEAITEVNYAHDPKAEFFSPAIDPEKITVGFILDRIDRYGSEHFKVDNKVRFAPEWQAIEDSRQSLHIPPADTLLKNL | failed
15 | MINTMTLDNGVRIITEKMSTVRSVSIGIWVGTGSRYESAEENGISHFLEHMFFKGTNTRSAQEIAEFFDSIGGQVNAFTSKEYTCYYAKVLDDHAGQAIDTLSDMFFHSTFQKEELEKERKVVFEEIKMVDDTPDDIVHDLLSSATYGKHSLGYPILGTVETLNSFNEGMLRHYMDRFYTGDYVVISVAGNVHDELIDKIKETFSQVKPTTYNYQGEKPMFLPNRIVRKKETEQAHLCLGYPGLPIGDKDVYALVLLNNVLGGSMSSRLFQDIREKRGLCYSVFSYHSSFRDSGMLTIYAGTGHDQLDDLVYSIQETTSALAEKGLTEKELENGKEQLKGSLMLSLESTNSRMSRNGKNELLLKKHRSLDEMIEQINAVQKQDVSRLAKILLSASPSISLINANGELPKALIH | failed
